Results as given in a protein production outcome set (Wang et al. 2014).

Experiment: label from the status in PepcDB records
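Note: failed if final PepcDB status was selected cloned or expressed and not failed if soluble or beyond.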

Sequence	protein production
RQKLLADFGEFALSNDNLADILTEACRLVGNALGTQRANVLEIEPSKRSLFVRAGVGLDDGIVGKLRLPMREIASERFSPDGSPLDIIHDVHTEPQYDLAAFMEVAGVVALVNVPILLPGRTLYGLLQVESSEPREFSQDDVEFLRTYSTILGPVIDRLNKVRALRDAEERFRLIVEAAR	failed
MIWILASLIAGIALRAWSVFILPLAYIIGRRNRDLGLLTYFLYGVLLVREVFVRDLISEEAFVSLGLLVPSVLALREIGEEFRVDVRGLVGLGVMSLGFIYKPALVLGVIITGISSIPWIELSILTLLFLVSYVAREHQELVVVGFVLVMSILLAKPIERREMRVKSGRGF	failed
LPKLREDFKMQNKSVFILGASGETGKVLLKEILGQNLFSKVTLIGRRKLTFEEEAYKNVNQEVVDFEKLDVYASAFQGHDVGFCCLGTTRSKAGAEGFVRVDRDYVLKSAELAKAGGCKHFNLLSSRGADKSSSFLYLQVKGEVEAKVEELKFDRLSVFRPGVLLCDRQESRPGEWLARKFFGSLPDSWASGYAVPVVTVVRAMLNNLVSPSSGQMELLENKAILHLGKDRDVPKL	not failed
MEDDCEELQVPVGTLTSIGFSISNNNDRDKMSVLEVEAPNQVTDSRLGLPNPDSVCRTCGSKDRKVCEGHFGVINFAYSIINPYFLKEVAALLNKICPGCKYIRKKQFQITEDQPERCRYCTLNTGYPLMKFRVTTKEVFRRSGIVVEVNEESLMKLKKRGVLTLPPDYWSFLPQDSNIDESCLKPTRRIITHAQVYALLLGIDQRLIKKDIPMFNSLGLTSFPVTPNGYRVTEIVHQFNGARLIFDERTRIYKKLVGFEGNTLELSSRVMECMQYSRLFSETVSSSKDSANPYQKKSDTPKLCGLRFMKDVLLGKRSDHTFRTVVVGDPSLKLNEIGIPESIAKRLQVSEHLNQCNKERLVTSFVPTLLDNKEMHVRRGDRLVAIQVNDLQTGDKIFRSLMDGDTVLMNRPPSIHQHSLIAMTVRILPTTSVVSLNPICCLPFRGDFDGDCLHGYVPQSIQAKVELDELVALDKQLINRQNGRNLLSLGQDSLTAAYLVNVEKNCYLNRAQMQQLQMYCPFQLPPPAIIKASPSSTEPQWTGMQLFGMLFPPGFDYTYPLNNVVVSNGELLSFSEGSAWLRDGEGNFIERLLKHDKGKVLDIIYSAQEMLSQWLLMRGLSVSLADLYLSSDLQSRKNLTEEISYGLREAEQVCNKQQLMVESWRDFLAVNGEDKEEDSVSDLARFCYERQKSATLSELAVSAFKDAYRDVQALAYRYGDQSNSFLIMSKAGSKGNIGKLVQHSMCIGLQNSAVSLSFGFPRELTCAAWNDPNSPLRGAKGKDSTTTESYVPYGVIENSFLTGLNPLESFVHSVTSRDSSFSGNADLPGTLSRRLMFFMRDIYAAYDGTVRNSFGNQLVQFTYETDGPVEDITGEALGSLSACALSEAAYSALDQPISLLETSPLLNLKNVLECGSKKGQREQTMSLYLSEYLSKKKHGFEYGSLEIKNHLEKLSFSEIVSTSMIIFSPSSNTKVPLSPWVCHFHISEKVLKRKQLSAESVVSSLNEQYKSRNRELKLDIVDLDIQNTNHCSSDDQAMKDDNVCITVTVVEASKHSVLELDAIRLVLIPFLLDSPVKGDQGIKKVNILWTDRPKAPKRNGNHLAGELYLKVTMYGDRGKRNCWTALLETCLPIMDMIDWGRSHPDNIRQCCSVYGIDAGRSIFVANLESAVSDTGKEILREHLLLVADSLSVTGEFVALNAKGWSKQRQVESTPAPFTQACFSSPSQCFLKAAKEGVRDDLQGSIDALAWGKVPGFGTGDQFEIIISPKVHGFTTPVDVYDLLSSTKTMRRTNSAPKSDKATVQPFGLLHSAFLKDIKVLDGKGIPMSLLRTIFTWKNIELLSQSLKRILHSYEINELLNERDEGLVKMVLQLHPNSVEKIGPGVKGIRVAKSKHGDSCCFEVVRIDGTFEDFSYHKCVLGATKIIAPKKMNFYKSKYLKNGTLESGGFSENP	failed
MATRPKTIWESFLSPVVRFLMDEDKWRRYAQSIDWEKESDRFRRTDVIIPSYYTSQNFHGIEGGYLNSSAAVTYDPITEYVLPPNETLVRQALIDGVKVQPRRILDLGCGTGSTTLMLKQAFPQADVIGLDLSPYMLVRAEDKARTADLDISWRHGNAEKTSFPNASFDLVTTSLLFHETPVEVSQTILQECFRLLVAGGQVIILDGNQKSLRQLNWLNDIFEEPYIREYAADNLDARMGAAGFVGVQTEDLWLIHQVTSGIKPILATDTNQIKDRQYMPAIDNNNLEGLESPAFGIVALEHHHHHH	failed
MNNIKRFFRYISKNAKYIDYPLVVTYLLLCLIGLVMVYSASMVAATKGSLTGGISVPGTYFYTRQLMYVIMSLVIVFFMAFFMNVKLLETIRFQKWMMIGIIILLAATLVVGSNINGSKSWINLGFMNLQASELLKIAIILYIPYMIEKKRPKVFKQPKLMTSPIILAGLCIALVLLQRDVGQTLLIMIIFVSILFYAGIGVQKSIKYGLLIIVGVVIIGSLFLIIGLVPDYLTARFSTLTNPFSQESGTGYHISNSLIAIGNGGLLGRGLGNSIMKLGYLPEPHTDFIFSIICEELGLVGGLVVICLLFFIVYRAFELANKTNSYFYKLVCVGVASYIGSQTFVNLGGISGTIPLTGVPLPFISFGGSSMISLSIALGLLLITGKQIRIEAYRKKQANKKKTHIGMTRRY	failed
MDEVLKEILSSYQKRALKLTKRVRKKIFKNDPTENQKKAIKIALNTPDIAIIQGPPGTGKTTVINAICERLFEEYPKDKNIKGQILLCAQGHDATNNARERIKVGGLPTFKFGAKKNAKEEQYKQDERLNERLREFAETLIESVRKKLQKLGDYENIEKILDLEEALRRYYSSPISELEFLKEIEKNESFF	failed
MNDITIIGASQNNLKNINITIPKHLVTVFTGRSGSGKSSLVFRTIAAESEQLLNESYSSYIQFHLNKQPKPKVNAIKNLPVAMTISQKRFNGNSRSTVGTVSDIYASVRLLWSRIGEPFVGYSDAFSFNSPNGMCETCEGLGYIEDINLNELLDWNKSLNEGAINFPSFGPDKERGKAYRDSGLFDNDKKLKAYTKEELDLFLYQEPIKLKKPPEEWRKSAKYVGLIPRFRRIFLGDKEFNKKRYAKHLKNVVENKVCPTCNGQRLNSKILSCKIMGKNISDFTQMTVKENLAFLNKLNNSTAQFIIEPLRKQLEALDYIGLSYLTLDRVTTSLSGGEAQRLKLIRHLNSSLSDLVYIIDEPSVGLHPEDIAKINEILKSLKHKGNTVLIVEHDPDVIKEADYIIDMGPSSGAQGGEITFKGTYKKLLSSDTSTGEALRIKHHLKNEIREAKSFYHLGPVTQNNLNNVTVDIPKHVLTVLTGVAGSGKSSLVKAGFAKNDNAVFMDQKAIQGSDRSNLLTYLGVFDRVRNFFSKETGLNKSMFSYNSKGACPNCGGKGYIETELAFMGEFSQTCEVCHGKRYKPEVLNATIDGYSIADFLELTVDEGIRFFDKENEIQSKLQAISKTGLNYVTLGQPLSTLSGGEIQRVKLGQYLNDDVTDSIFIFDEPTTGLHEADIPILINCFNDLIEQNNTVILIEHNLSIMCDADWIIDVGPGPGLDGGKIQFSGYPINFVKENKTLTSKHLKLYIAND	failed
MCENEEYRERFPDKHFDLETVLQAKVRPICVVPERTFIGFFHREKSKEEEEKEDVSLDFLKGVMSFDSIWEEIMKQEPEESASEHVIYIVSWNDHYFVLLVNHDAYYIIDTLGERVYEGCNQAYVLKFDQDAEIKRLPSVIKDNKADMGSQKQGGKNKYEQPERSKESEEQGEEVVVCRGKESCREYIKSFLAAIPIQQVKADMKEGLVSSFHHRLQIELYYTKHLHHRQPNMFESSTTKVTVSEATVSMTVAWLLASQFSNSGGFGCEMAELLGIKV	failed
MEGNSDSMILVTVNPKTKKTTMTSLERDILVKLSGSKTNDQTGYDAKLNAAYAAGGAKMAIMTVQDMLDIKIDKYVQINMEGLVQLVDAVGGITVTNHFDFPISIEEHEPEFTASVEPGTHKINGEQALVYSRMRYDDPDGDYGRQKRQREVISKVLKKILALDSVSKYRKILSAVSKNMQTNIEISSSTIPKLLGYSDALKSIRTYQLKGEGTTIDGGSYQLVTSKELLKAQNRIKGQLGLKKSTAENLKTTASLYENFYGGDTSIYDSSSSASDYSSSGNYSGSSSDYGSSSSYGSNSSSGSSSDYSGQNSYNQGNYQQPAAGTGIGNLEHHHHHH	not failed
MMCAARNTMSSSGSSPSGSDLQAFVMEFIITGFLMLVVCAVTTTKRTTEELEGLIIGATVTLNVIFVGEVSGASMNPARSIGPALVWGCYKGIWIYLLAPTLGAVSRALIHKMLPSIPNAEPKFSKTGSSHKRVSDLPL	failed
MSNDNGVSRRQFMKTSALAAGGLLLACHLPLGRRDAAAATAEAFTPNAFLHIGTDERVTVIVNKSEMGQGVYTSLPMLVAEELCCDWKRVTFRPSPVAPEYNHTQFGPIMVTGGSTSVRSEWSRLSLAGAAAREMLIAAAAQEWRVEPAACRAEKGFVLGPGGRKLSFGTLAPKAASLPVPKEPKLKPGAKTLLGKPLKRLDSPAKIKGTAVFGIDVRAPGMLTALIARPPVFGGTVKGFDAAKAKAVPGVLDVVAVDAGVAVVADGFWPALKGREALAISWDEGDGARVSTDAMREEYARLAATPGAVARKDGDAPAELAKAARRFEAEYEVPYLAHATMEPLNCFVDLQSDSCLIRTGSQFQTGDRNAAARVAGLKPEQVTLETTFLGGGFGRRACPASDFVIEAVQVAKTVGKPVMVIRTREDDMRAGFYRPLWRDRVAACLDGRGYPLAWHHCIVGQSIMIGTPFEAMIRNGIDDTSVEGAADTPYAIPNLQVELHSPRNPVPVLWWRSVGHSHTAFVVESFLDELAHAAGKDPYQYRRALLAKHPRHLKVLETAARKAGWGKPLPKGRGRGIAVHESFGSFIAQVAEVSLSGDGRIRVHRVVCAVDCGRIVNPDTIEAQMESGITFGLSAALHGAITLRNGRVEQGNFDDYPLVRMAEMPTVEVHIVLSGEDPGGIGEPGVPPIAPAVANALFAASGIRVRSLPLTPETVKRAGGRAA	failed
MNSDPTRERILHGLITLYILKELVKRPMHGYELQKSMFETTGQALPQGSIYILLKTMKERGFVISESSVNEKGQQLTVYHITDAGKKFLCDHSQALQLARKIIDDLLSTVDIIENRN	not failed
MTAPIIITGVGKRIGYALAKHLLAQGHKVIGTYRSHYPSIDELQSLGATLIQCDFYDNAQVQNLIEQLSQYPKFRAIIHNASDWLADNSPEFAAHEVMQRMIQVHVNVPYQMNLALASKLQAGAEGEIGASDIIHITDYVAEKGSAKHIAYAASKAALDNLTLSFAAKLAPEVKVNAIAPAMILFNPSDDEAYRQKTLAKAILPKEAGNHEIIELMEYLLNSRYVTGRSHHVDGGRHLR	not failed
HPQYIVFCDFDETYFPHTIDEQKQQDIYELEDYLEQKSKDGELIIGWVTGSSIESILDKMGRGKFRYFPHFIASDLGTEITYFSEHNFGQQDNKWNSRINEGFSKEKVEKLVKQLHENHNILLNPQTQLGKSRYKHNFYYQEQDEINDKKNLLAIEKICEEYGVSVNINRCNPLAGDPEDSYDVDFIPIGTGKNEIVTFMLEKYNLNTERAIAFGDSGNDVRMLQTVGNGYLLKNATQEAKNLHNLITDSEYSKGITNTLKKLIGFMRR	failed
MSAVATFSVALANEVATVRLMAEVALLIGPGDVVTLSGDLGAGKTAAARAMIRYLADDDALEVPSPTFTLVQTYDLPPYPLLHADLYRVEDPSELEEIGLSPLPDGTVALIEWPERAGAALPEDRIDIALSHRPALGPSARAAEITGHGKAVKQVERLAALRSFIETAGYADAERRHMPGDASTRSYARLQRGAESVILMNAPRRPDGPALYAGKSYSAAVHLAEDVRPFVAIGQGLRERGFSAPAIHHADLDAGFLITEDLGRIGFVEGDPPAPVVARYQAATDMLAALHAKPLPDHLPLSTRESYAVPTFDEAAMMIEVGLMPEWYLPDRGAPPSEALRVEFVALWRKLLAGIATAPRTWVLRDYHSPNLIWLEDRPGIERVGVIDFQDTVLGPAAYDVVSLLQDARIDVPEAAELSLLGRYVKARLAADPEFDAPGFARLYAVMSAQRNTRLLGTFARLNRRDGKPQYLKHQPRVWAYLARSLAHPALAEVRAWYRDHVPPPL	failed
